This assay can be described thus: FRET fluorescence emission response of GA biosensors to GA. It counts as binding. Particulars: FIG. 9. An excerpt:
FIG. 9 depicts the fluorescence emission curves of a GA biosensor in response to GA. Also depicted are the GA responses of biosensor mutant variants. A: GA response of SMSX39L10.DR43 (RGA2 and GID1C sub-domains, L10 linker, Venus and Cerulean fluorescent proteins).
Expression and screening hormone biosensors using Saccharomyces cerevisiae as a eukaryotic host cell to better express the eukaryotic hormone binding domains. S. cerevisiae can be adapted to a high-throughput expression system. A new library of GATEWAY™ destination vectors was created for expression in yeast (Table IV, FIG. 2). Although expression of SMS in S. cerevisiae was successful as determined by fluorescence emissions, purification of sensors from the host cells was not possible because of cleavage of the hormone binding domains of the SMS proteins upon cell lysis, which can be important because the rate of transport of many plant hormones into yeast cells is low. […] SMS proteins were subsequently screened from cell lysates and after purification using metal-affinity chromatography, if the clones included an N-terminal 6HIS tag.
Subsequent experiments identified protocols for yeast cell transformation, culture and lysis, metal-affinity chromatography, and fluorescence analysis after hormone treatment in a 96-well format. Thus, a novel high-throughput platform for creation and screening of SMS had been developed. […]

Where a chain is given by its changes, count along the chain named. Names and notes keep the numbering of the source.

B1: GID1C(S114A): GA biosensor mutant variant, mutation of a GA binding residue of GID1C (protein, UniProt Q940G6 2-344, looked up, variant S114A)
Gibberellin receptor GID1C: AGSEEVNLIESKTVVPLNTWVLISNFKLAYNLLRRPDGTFNRHLAEFLDRKVPANANPVNGVFSFDVIIDRQTNLLSRVYRPADAGTSPSITDLQNPVDGEIVPVIVFFHGGAFAHSSANSAIYDTLCRRLVGLCGAVVVSVNYRRAPENRYPCAYDDGWAVLKWVNSSSWLRSKKDSKVRIFLAGDSSGGNIVHNVAVRAVESRIDVLGNILLNPMFGGTERTESEKRLDGKYFVTVRDRDWYWRAFLPEGEDREHPACSPFGPRSKSLEGLSFPKSLVVVAGLDLIQDWQLKYAEGLKKAGQEVKLLYLEQATIGFYLLPNNNHFHTVMDEIAAFVNAECQ
modifications: within FRET biosensor
For the molecule B1, the “GA affinity / GA response of biosensor” value is listed as “reduced GA affinity”.

B2: GID1C P98A: GA biosensor mutant variant rendering GID interaction with DELLA constitutive; control (protein, UniProt Q940G6 2-344, looked up, variant P98A)
Gibberellin receptor GID1C: B1 Gibberellin receptor GID1C with P97A, A113S
modifications: within FRET biosensor
notes: control
Regarding B2, the “GA affinity / GA response of biosensor” value is “GA non-responsive”.

The record behind these values is patent US20140090111A1, “Plant Hormone Biosensors” (Carnegie Institution of Washington, priority 2012, published 2014).
